We go through 15 molecules from patent US20200071424A1.

The target of test [1] is cynomolgus monkey EL (cynomolgus monkey). Description: Biacore; EL captured by anti-C2-tag Ab; bivalent fit. On the technique in general: Surface plasmon resonance follows binding to a sensor surface in real time, without labels.
Test [2] has the same target. Description: cell-based or functional assay.
Test [3] has as its target human-mouse chimeric EL (construct not specified). Kind of test: Biacore; EL captured by anti-C2-tag Ab; bivalent fit.
Test [4] shares this target. Kind of test: cell-based or functional assay.

B1: h23H8-S1 (antibody, V domains shown)
VH: QVQLVQSGAEVKKPGASVKVSCKASGYTFTDNTIHWVRQAPGQGLEWMGHINPYYGGTNNNEKFKDRVTMTRDTSISTAYMELSRLRSDDTAVYYCARKGIYYSSPFDYWGQGTTVTVSS
VL: DIQMTQSPSSLSASVGDRVTITCRASQDINNYLNWYQQKPGKAPKLLIYYTSKLHSGVPSRFSGSGSGTDFTLTISSLQPEDFATYYCQQGNTLPFTFGQGTKLEIK
With B1, in test [1], the Kd was found to be 36 nM; the koff (as a rule, a measure of how fast the partners let go of each other) is 0.0036 s⁻¹; the kon (as a rule, the second-order rate constant of association) was 100000 M⁻¹ s⁻¹. The molecule further registered a Neutralizing activity IC50 in test [2] of 26 nM.

B2: h23H8-S3 (antibody, V domains shown)
VH: QVQLVQSGAEVKKPGASVKVSCKASGYTFTDNTIHWVRQAPGQGLEWMGHINPYYGGTNNNEKFKDRVTMTRDTSISTAYMELSRLRSDDTAVYYCARKGIYYSSPFDYWGQGTTVTVSS
VL: DIQMTQSPSSLSASVGDRVTITCRASQDINNYLNWYQQKPGKAPKLLISYTSKLHSGVPSRFSGSGSGTDFTLTISSLQPEDFATYYCQQGNTLPFTFGQGTKLEIK
In test [1], B2 came in with a Kd of 0.41 nM, a koff of 0.00015 s⁻¹ and a kon of 370000 M⁻¹ s⁻¹. The molecule also gave a Neutralizing activity IC50 in test [2] of 1.8 nM.

B3: h23H8-S2 (antibody, V domains shown)
VH: QVQLVQSGAEVKKPGASVKVSCKASGYTFTDNTIHWVRQAPGQGLEWMGHINPYYGGTNNNEKFKDRVTMTRDTSISTAYMELSRLRSDDTAVYYCARKGIYYSSPFDYWGQGTTVTVSS
VL: DIQMTQSPSSLSASVGDRVTITCRASQDINNYLNWYQQKPGKAPKLLISYTSKLHSGVPSRFSGSGSGTDFTLTISSLQREDFATYYCQQGNTLPFTFGQGTKLEIK
For B3, in test [1], the Kd was found to be 4.3 nM, the koff worked out at 0.00099 s⁻¹ and the kon worked out at 230000 M⁻¹ s⁻¹. In addition, the Neutralizing activity IC50 in test [2] was 1.7 nM.

B4: h13B3-S1 (antibody, V domains shown)
VH: QVQLVQSGAEVKKPGASVKVSCKASGYTFTEYTMHWVRQAPGQGLEWMGSINPYYGGTSYNEKFKDRVTMTRDTSTSTVYMELSSLRSEDTAVYYCARYGNYVGYFDYWGQGTTVTVSS
VL: EIVLTQSPGTLSLSPGERATLSCRASSSVHYMYWYQQKPGQAPRLLIYYTSNLAPGIPDRFSGSGSGTDFTLTISRLEPEDFAVYYCQQFTSSPYTFGGGTKVEIK
In test [1], B4 gave a Kd of 5.7 nM, an off-rate (koff) of 0.00043 s⁻¹ and a kon of 76000 M⁻¹ s⁻¹. The molecule also came in with a Neutralizing activity IC50 in test [2] of 2.4 nM.

B5: h13B3-S2 (antibody, V domains shown)
VH: QVQLVQSGAEVKKPGASVKVSCKASGYTFTEYTMHWVRQAPGQGLEWMGSINPYYGGTSYNEKFKDRVTSTRDTSISTAYMELSRLRSDDTVVYYCARYGNYVGYFDYWGQGTTVTVSS
VL: EIVLTQSPGTLSLSPGERATLSCRASSSVHYMYWYQQKPGQAPRLLIYYTSNLAPGIPDRFSGSGSGTDFTLTISRLEPEDFAVYYCQQFTSSPYTFGGGTKVEIK
In test [1], B5 gave a Kd of 3.1 nM, a koff of 0.00014 s⁻¹ and an on-rate (kon) of 45000 M⁻¹ s⁻¹. In test [2], this molecule gave a Neutralizing activity IC50 of 3.6 nM.

B6: h13B3-S4 (antibody, V domains shown)
VH: QVQLVQSGAEVKKPGASVKVSCKASGYTFTEYTMHWVRQAPGQGLEWMGSINPYYGGTSYNEKFKDRVTSTRDTSISTAYMELSRLRSDDTVVYYCARYGNYVGYFDYWGQGTTVTVSS
VL: EIVLTQSPATLSLSPGERATLSCRASSSVHYMYWYQQKPGQAPRLLIYYTSNLAPGIPARFSGSGSGTDFTLTISSLEPEDFAVYYCQQFTSSPYTFGGGTKVEIK
B6: in test [1], the Kd turned out to be 3.5 nM, the koff came out at 0.00038 s⁻¹ and the on-rate constant (kon) is 110000 M⁻¹ s⁻¹. In test [2], this molecule gave a Neutralizing activity IC50 of 2.9 nM.

B7: h13B3-S3 (antibody, V domains shown)
VH: QVQLVQSGAEVKKPGASVKVSCKASGYTFTEYTMHWVRQAPGQGLEWMGSINPYYGGTSYNEKFKDRVTMTRDTSTSTVYMELSSLRSEDTAVYYCARYGNYVGYFDYWGQGTTVTVSS
VL: EIVLTQSPATLSLSPGERATLSCRASSSVHYMYWYQQKPGQAPRLLIYYTSNLAPGIPARFSGSGSGTDFTLTISSLEPEDFAVYYCQQFTSSPYTFGGGTKVEIK
In test [1], B7 registered a Kd of 13 nM, a koff of 0.00085 s⁻¹ and a kon of 66000 M⁻¹ s⁻¹. In addition, in test [2], the Neutralizing activity IC50 was 4.1 nM.

B8: h53A11-S1 (antibody, V domains shown)
VH: QVQLVQSGAEVKKPGASVKVSCKASGYTFTDYTMHWVRQAPGQRLEWMGGINPYYGGTTYNEKFKDRVTITRDTSASTAYMELSSLRSEDTAVYYCAKGDYYGGSYNYWGQGTTVTVSS
VL: EIVMTQSLATLSVSPGERATLSCRASQDISNSLHWYQQKPGQAPRLLIKYASQSISGIPARFSGSGSGTEFTLTISSLQSEDFAVYYCQQSNSWPYTFGQGTKLEIK
For the molecule B8, in test [1], the Kd was 2.3 nM, the off-rate constant (koff) turned out to be 0.0003 s⁻¹ and the kon turned out to be 130000 M⁻¹ s⁻¹. The same molecule had a Neutralizing activity IC50 in test [2] of 1.7 nM.

B9: h53A11-S3 (antibody, V domains shown)
VH: QVQLVQSGAEVKKPGASVKVSCKASGYTFTDYTMHWVRQAPGQRLEWMGGINPYYGGTTYNEKFKDRVTITRDTSASTAYMELSSLRSEDTAVYYCAKGDYYGGSYNYWGQGTTVTVSS
VL: EIVMTQSPATLSVSPGERATLSCRASQDISNSLHWYQQKPGQAPRLLIKYASQSISGIPARFSGSGSGTEFTLTISSLQSEDFAVYYCQQSNSWPYTFGQGTKLEIK
In the case of B9, in test [1], the Kd is 5.8 nM, the koff was 0.0007 s⁻¹ and the on-rate (kon) turned out to be 120000 M⁻¹ s⁻¹. Also, the Neutralizing activity IC50 in test [2] came out at 1.2 nM.

B10: h53A11-S2 (antibody, V domains shown)
VH: QVQLVQSGAEVKKPGASVKVSCKASGYTFTDYTMHWVRQAPGQRLEWMGGINPYYGGTTYNEKFKDRVTITRDTSASTAYMELSSLRSEDTAVYYCAKGDYYGGSYNYWGQGTTVTVSS
VL: EIVMTQSLATLSVSPGERATLSCRASQDISNSLHWYQQKPGQAPRLLIYYASQSISGIPARFSGSGSGTEFTLTISSLQSEDFAVYYCQQSNSWPYTFGQGTKLEIK
Turning to B10, in test [1], the Kd was 4.3 nM, the koff worked out at 0.00065 s⁻¹ and the on-rate constant (kon) worked out at 150000 M⁻¹ s⁻¹. In test [2], this molecule showed a Neutralizing activity IC50 of 1.8 nM.

B11: h12B10-S1 (antibody, V domains shown)
VH: EVQLVESGGGLVKPGGSLRLSCAASGFSLSTSGMGVGWVRQAPGKGLEWLAHIWWNDEKYYNPSLKSRFTISRDDSKNTLYLQMNSLKTEDTAVYYCARDHLAYYFDVWGQGTLVTVSS
VL: DIQMTQSPSSLSASVGDRVTITCKASQDINKYIAWYQQKPGKAPKLLMAYPFTLQPGVPSRFSGSGSGTDFTLTISSLQPEDFATYYCLQYDNLLWTFGQGTKVEIK
B11: in test [3], the Kd came out at 1.9 nM, the off-rate (koff) turned out to be 0.00035 s⁻¹ and the kon was 190000 M⁻¹ s⁻¹. In addition, the Neutralizing activity IC50 in test [4] is 6 nM.

B12: h12B10-S2 (antibody, V domains shown)
VH: EVQLVESGGGLVKPGGSLRLSCAASGFSLSTSGMGVGWVRQAPGKGLEWLAHIWWNDEKYYNPSLKSRFTISRDDSKNTLYLQMNSLKTEDTAVYYCARDHLAFYFDLWGQGTLVTVSS
VL: DIQMTQSPSSLSASVGDRVTITCKASQDINKYIAWYQQKPGKAPKLLMAYPFTLQPGVPSRFSGSGSGTDFTLTISSLQPEDFATYYCLQYDNLLWTFGQGTKVEIK
For the molecule B12, in test [3], the Kd was 0.14 nM, the koff was found to be 3.3e-05 s⁻¹ and the association rate constant (kon) was 240000 M⁻¹ s⁻¹. The molecule further displayed a Neutralizing activity IC50 in test [4] of 5.4 nM.

B13: h12B10-S3 (antibody, V domains shown)
VH: EVQLVESGGGLVKPGGSLRLSCAASGFSLSTSGMGVGWVRQAPGKGLEWLAHIWWNDEKYYNPSLKSRFTISRDDSKNTLYLQMNSLKTEDTAVYYCARDHLAFFFDLWGQGTLVTVSS
VL: DIQMTQSPSSLSASVGDRVTITCKASQDINKYIAWYQQKPGKAPKLLMAYPFTLQPGVPSRFSGSGSGTDFTLTISSLQPEDFATYYCLQYDNLLWTFGQGTKVEIK
In test [3], B13 had a Kd of 0.11 nM, a koff of 1.7e-05 s⁻¹ and a kon of 150000 M⁻¹ s⁻¹. This molecule came in with a Neutralizing activity IC50 in test [4] of 4.9 nM.

B14: h12B10-S4 (antibody, V domains shown)
VH: EVQLVESGGGLVKPGGSLRLSCAASGFSLSSSGMGVGWVRQAPGKGLEWLAHIWWNDEKYYNPSLKSRFTISRDDSKNTLYLQMNSLKTEDTAVYYCARDHLVFFFDLWGQGTLVTVSS
VL: DIQMTQSPSSLSASVGDRVTITCKASQDINKYIAWYQQKPGKAPKLLMAYPFTLQPGVPSRFSGSGSGTDFTLTISSLQPEDFATYYCLQYDNLLWTFGQGTKVEIK
In turn, B14 registered a Neutralizing activity IC50 in test [4] of 6.2 nM.

B15: h16B3-S1 (antibody, V domains shown)
VH: EVQLVESGGGLVQPGGSLRLSCAASGFTFSGYTMSWVRQAPGKGLEWVSEISFARDRAFYPDTVKGRFTISRDNSKNTLYLQMNSLRAEDTAVYYCAKLGGRNHDYWYFDVWGQGTTVTVSS
VL: DIVMTQSPDSLAVSLGERATINCRASESVEYYGTSLMQWYQQKPGQPPKLLIYAASNVESGVPDRFSGSGSGTDFTLTISSLQAEDVAVYYCQQSWKVPFTFGQGTKLEIK
Consider B15, for which, in test [1], the Kd is 11 nM, the koff amounted to 0.001 s⁻¹ and the kon came out at 94000 M⁻¹ s⁻¹. The Neutralizing activity IC50 in test [2] turned out to be 3.6 nM.
